Measurements as given in US20090291088A1 (Biogen, published 2009).

How the values were obtained:
[1] = target: T1, hIGF-1R-Fc mutant SD015 (H464E) (human, UniProt P08069 31-933); assay: SPR (Biacore): M13-C06 injected over SD015 captured on an immobilised M13-C06 surface
T1 construct: not shown: C-terminal human IgG1-Fc tag
Description: (§1) After, completion of the receptor-Fc loading step, flow rates were elevated to 5 μl/min. […] At the end of each sensorgram, the flow rate was elevated to 30 μl/min and the chip surface was regenerated by 2×10 μL injections of 0.1 M glycine, pH 2.

[2] = target: T2, human IGF-1R expressed on cells (human, UniProt P08069 31-1367); assay: flow cytometry, MCF-7 cells
T2 construct: On MCF-7 tumor cells or on 3T3/CHO transfectants; precursor is processed into alpha and beta subunits; Signal peptide 1-30 left out as stated; also called wild type IGF-1R; IGF-1R 3T3

[3] = target: T3, hIGF-1R-Fc mutant SD001 (Y28A) (human, UniProt P08069 31-933); assay: SPR, M13-C06 Fab over captured mutant
T3 construct: not shown: C-terminal human IgG1-Fc tag
Description: as §1

[4] = target: T4, hIGF-1R-Fc mutant SD018 (E665A) (human, UniProt P08069 31-933); assay: SPR, M13-C06 Fab over captured mutant
T4 construct: not shown: C-terminal human IgG1-Fc tag
Description: as §1

[5] = target: T5, hIGF-1R-Fc mutant SD014 (K412A_A413Q) (human, UniProt P08069 31-933); assay: SPR, M13-C06 Fab over captured mutant
T5 construct: not shown: C-terminal human IgG1-Fc tag
Description: as §1

[6] = target: T6, hIGF-1R-Fc mutant SD019 (E739W, L741F) (human, UniProt P08069 31-933); assay: SPR, M13-C06 Fab over captured mutant
T6 construct: not shown: C-terminal human IgG1-Fc tag
Description: as §1

[7] = target: T7, hIGF-1R-Fc mutant SD005 (A217T) (human, UniProt P08069 31-933); assay: SPR, M13-C06 Fab over captured mutant
T7 construct: not shown: C-terminal human IgG1-Fc tag
Description: as §1

[8] = target: T8, hIGF-1R-Fc mutant SD012 (E303G) (human, UniProt P08069 31-933); assay: SPR, M13-C06 Fab over captured mutant
T8 construct: not shown: C-terminal human IgG1-Fc tag
Description: as §1

[9] = target: T9, hIGF-1R-Fc mutant SD008 (S257F) (human, UniProt P08069 31-933); assay: SPR, M13-C06 Fab over captured mutant
T9 construct: not shown: C-terminal human IgG1-Fc tag
Description: as §1

[10] = target: T10, hIGF-1R-Fc mutant SD009 (E264K) (human, UniProt P08069 31-933); assay: SPR, M13-C06 Fab over captured mutant
T10 construct: not shown: C-terminal human IgG1-Fc tag
Description: as §1

[11] = target: T11, hIGF-1R-Fc mutant SD003 (T188F) (human, UniProt P08069 31-933); assay: SPR, M13-C06 Fab over captured mutant
T11 construct: not shown: C-terminal human IgG1-Fc tag
Description: as §1

[12] = target: T12, hIGF-1R-Fc mutant SD013 (D405K) (human, UniProt P08069 31-933); assay: SPR, M13-C06 Fab over captured mutant
T12 construct: not shown: C-terminal human IgG1-Fc tag
Description: as §1

[13] = target: T13, hIGF-1R-Fc mutant SD011 (G285S_S286T) (human, UniProt P08069 31-933); assay: SPR, M13-C06 Fab over captured mutant
T13 construct: not shown: C-terminal human IgG1-Fc tag
Description: as §1

[14] = target: T14, hIGF-1R-Fc mutant SD002 (M156A) (human, UniProt P08069 31-933); assay: SPR, M13-C06 Fab over captured mutant
T14 construct: not shown: C-terminal human IgG1-Fc tag
Description: as §1

[15] = target: T15, hIGF-1R-Fc mutant SD016 (D531Q_V532N) (human, UniProt P08069 31-933); assay: SPR, M13-C06 Fab over captured mutant
T15 construct: not shown: C-terminal human IgG1-Fc tag
Description: as §1

[16] = target: T16, hIGF-1R-Fc mutant SD007 (N237G) (human, UniProt P08069 31-933); assay: SPR, M13-C06 Fab over captured mutant
T16 construct: not shown: C-terminal human IgG1-Fc tag
Description: as §1

[17] = target: T17, hIGF-1R-Fc mutant SD017 (I650S) (human, UniProt P08069 31-933); assay: SPR, M13-C06 Fab over captured mutant
T17 construct: not shown: C-terminal human IgG1-Fc tag
Description: as §1

[18] = target: T18, hIGF-1R-Fc mutant SD004 (S210H_A211Q) (human, UniProt P08069 31-933); assay: SPR, M13-C06 Fab over captured mutant
T18 construct: not shown: C-terminal human IgG1-Fc tag
Description: as §1

[19] = target: T19, hIGF-1R-Fc mutant SD006 (A227K) (human, UniProt P08069 31-933); assay: SPR, M13-C06 Fab over captured mutant
T19 construct: also called SD0006; not shown: C-terminal human IgG1-Fc tag
Description: as §1

[20] = target: T20, hIGF-1R-Fc mutant SD010 (G271D) (human, UniProt P08069 31-933); assay: SPR, M13-C06 Fab over captured mutant
T20 construct: not shown: C-terminal human IgG1-Fc tag
Description: as §1

B1: M13-C06 Fab (Fab, V domains shown)
VH: EVQLLESGGGLVQPGGSLRLSCAASGFTFSIYRMQWVRQAPGKGLEWVSGISPSGGTTWYADSVKGRFTISRDNSKNTLYLQMNSLRAEDTAVYYCARWSGGSGYAFDIWGQGTMVTVSS
VL: DIQMTQSPLSLSASVGDRVTITCQASRDIRNYLNWYQQKPGKAPKLLIYDASSLQTGVPSRFGGSGSGTDFSFTIGSLQPEDIATYYCQQFDSLPHTFGQGTKLEIK
notes: Human Fab from a phage library, kappa light chain
Question: Does B1 bind [1]?
Answer: Result: no binding (tested: 10 nM)

Question: And the EC50 [2]?
Answer: Its EC50 is 8.8 nM.

Question: And the “Biacore Relative RUmax” value [3]?
Answer: The value was 0.6.

Question: What about the “Biacore Relative RUmax” value [4] of the same binder?
Answer: The value was 1.7.

Question: What about the “Biacore Relative RUmax” value [5] of the same binder?
Answer: Its value is 0.6.

Question: And the “Biacore Relative RUmax” value [6]?
Answer: Its value is 1.9.

Question: And the “Biacore Relative RUmax” value [7]?
Answer: Its value is 0.9.

Question: And the “Biacore Relative RUmax” value [8]?
Answer: Its value is 0.3.

Question: What about the “Biacore Relative RUmax” value [9] of the same binder?
Answer: The value was 1.5.

Question: And the “Biacore Relative RUmax” value [10]?
Answer: The value was 0.6.

Question: And the “Biacore Relative RUmax” value [11]?
Answer: The value was 1.

Question: What about the “Biacore Relative RUmax” value [12] of the same binder?
Answer: The value was 0.7.

Question: And the “Biacore Relative RUmax” value [13]?
Answer: The value was 1.8.

Question: And the “Biacore Relative RUmax” value [14]?
Answer: The value was 1.2.

Question: And the “Biacore Relative RUmax” value [15]?
Answer: Its value is 2.

Question: What about the “Biacore Relative RUmax” value [16] of the same binder?
Answer: The value was 1.3.

Question: And the “Biacore Relative RUmax” value [17]?
Answer: Its value is 2.

Question: And the “Biacore Relative RUmax” value [18]?
Answer: The value was 0.8.

Question: And the “Biacore Relative RUmax” value [19]?
Answer: The value was 1.7.

Question: What about the “Biacore Relative RUmax” value [20] of the same binder?
Answer: The value was 0.8.
